PMC9667838

Target: Secreted form of the peptidase domain (PD) of ACE2 (human)
Assay: BLI

Row | Substance | Kd [nM]
1 | Receptor binding domain (RBD) of the spike glycoprotein of SARS-CoV-2 Omicron subvariants BA.4/BA.5 (from UniProt P0DTC2 319-541) (domain or fragment) | 4.55
2 | Receptor binding domain (RBD) of the spike glycoprotein of SARS-CoV-2 Omicron subvariant BA.2 (from UniProt P0DTC2 319-541) (domain or fragment) | 4.15
